Data published in US20250312468A1, “ANTI-PROTAC ANTIBODIES AND COMPLEXES” (Merck Patent GmbH, priority 2021, published 2025).

Assays:
MDAMB468 cells = assay: CellTiter-Glo cell viability assay (VHH-based PAX); conditions: gemtuzumab-based vs cetuximab-based construct, GNE987 (1:1)
Protocol: (§1) Several cell viability experiments were performed following the procedure described below: Cells were seeded in different media into white cell culture-treated flat and clear bottom multiwell plates followed by overnight incubation in a humid chamber at 37° C. and 5% CO2. Complexation was performed as described in chapter 7.4.
(§2) The solutions were added to the cells based on the antibody concentration using nanodrop dispension using a Tecan D300e Digital Dispenser and all wells were normalized to the same volume using 0.3% TW20 in PBS pH 7.4 and DMSO to a final solvent concentration of 0.05% DMSO and 0.003% TW20. Incubation was performed at 37° C. at 5% or 10% CO2 dependent on the medium. The assay was developed after 3 days if not otherwise stated using CellTiter-Glo Luminescent Cell Viability Assay as described in the manufacturer's protocol. In brief, the plates were equilibrated to room temperature for 30 minutes. 100 mL CellTiter-Glo Buffer were added to the CellTiter-Glo Substrate Flask and mixed well. 30 μL of the reagent was transferred to each well. After incubation for 3 minutes at room temperature while shaking at 550 rpm, the plate was incubated for another 10 minutes at room temperature. The luminescence was read on an Envision reader from Perkin Elmer. Solvent alone and Bortezomib (1.0E-05 M) served as high control (100% viability) and low control (0% viability), respectively. Raw data were converted into percent cell viability relative to the high and low control, which were set to 100% and 0%, respectively. […] The concentration corresponds to the concentration of PROTACs in the PAX.

HEPG2 cells = assay: CellTiter-Glo cell viability assay (VHH-based PAX); conditions: cetuximab-based construct, GNE987 (1:1)
Protocol: as §1, §2

Row | Molecule | Selectivity Index IC5O(G)/IC50(C) (MDAMB468 cells) | Selectivity Index IC50 of C on HEPG2/MDAMB468 (HEPG2 cells)
1 | MIC5: anti-PROTAC VHH clone, SEQ ID NO: 24 (protein, new world camelid) VHH: AVQLVDSGGGLVQAGGSLRLSCAASGFTFDDYAIGWFRQAPGKEPEGILCISSSDGSAYVRDSVKGRFTMSSDNAKNTMYLQMNSLRTEDTAVYHCAVATGSCPADGGQKIFLEVWGQGTQVTVSS | 98.1 | 
2 | MIC7: anti-PROTAC VHH clone, SEQ ID NO: 20 (protein, new world camelid) VHH: AVQLVESGGGLVQAGGSLRLSCAASGFSFDDYALGWFRQAPGKEPEGLSCISSSDGSTWYADSVKGRFTISSDNAKNTVYLQMNSLKPEDTAVYYCSAIYRLSCSVVRPTIRYALDYWGQGTQVTVSS | 20.9 | 565.3
